A short description of this data set: soluble on expression in E. coli; label from the status in PepcDB or PDB records.
In the case of “RYRGSKWAGKKSIPAFIDNDYNEADQVIENLQRNELTPREIADFIGRELAKGKKKGDIAKEIGKSPAFITQHVTLLDLPEKIADAFNTGRVRDVTVVNELVTAFKKRPEEVEAWLDDDTQEITRGTVKLLREFLDEKGRDPNTVDAFNGQTDAERDAEAGDGQDGEDGDQDGKDAKEK”, the “soluble on expression in E. coli” value is “soluble”.
Take “DKVQNAVMQAMVRGSLNKDLAAQIKDLGKTTEKRAMFIARDQSSKLNAALTQARHEEVGIKKYMWSASLDERVRESHAEKDGQIFEYANPPADTDHPGHDFNCRCVQI”: the “soluble on expression in E. coli” value is reported as “not soluble”.
In the case of “MWHIFERFVNEYERWFLVHRFAYLSELQAVKCLLPEGRGVEIGVGTGRFAVPLKIKIGVEPSERMAEIARKRGVFVLKGTAENLPLKDESFDFALMVTTICFVDDPERALKEAYRILKKGGYLIVGIVDRESFLGREYEKNKEKSVFYKNARFFSTEELMDLMRKAGFEEFKVVQTLFKHPSELSEIEPVKEGYGEGAFVVIRGTKK” it was “soluble”.
To “MSLARSRARVETIAELERTNAALQQALDENAALHAQLLVQAREAGVADERRRLAAEIHDTLAQGLTGIIAQLQVVAAAPDPALGREHLDRALALARHSLGEARRSVHNLSPVALAEDGLPDALKKTVTEWGARTGVQARFTVTGTAEHLHDEVAATLLRIAQEALSNTARHAAADRVGVTLSYMGDEVTLDIRDDGRGFDPLTARECGPGGGFGLDGMRARAERIAGSLTVEAEPGHGTAVSARVPLVRHDREGHHHHHH” belongs “soluble”; to “SSHGIGDALGSDWPGREPRATDNRGQYLKGESWVSGRPGHPKLREVGFLRGEPPSAGPKGLGTWSELSHRYFELGQLPYAYPYYKVLPEGELRCVSLDRFNPGLSEETVEDEKTLKFFRWSADSRGVTGSAIFQISKSLMP”, “soluble”; to “MNTILAQQIANEGGVEAWMIAQQHKSLLRFLTCGSVDDGKSTLIGRLLHDTLQIYEDQLSSLHNDSKRHGTQGEKLDLALLVDGLQAEREQGITIDVAYRYFSTERRKFIIADTPGHEQYTRNMATGASTCDLAILLIDARKGVLDQTRRHSFISTLLGIKHLVVAINKMDLVDYREETFARIREDYLTFAEQLPGDLDIRFVPLSALEGDNVAAQSANMRWYSGPTLLEVLETVDIQRAVDRQPMRFPVQYVNRPNLDFRGYAGTLASGSVKVGERIKVLPSGVESSVARIVTFDGDKEEACAGEAITLVLNDDIDISRGDLLLAANETLAPARHAAIDVVWMAEQPLAPGQSYDVKLAGKKTRARIEAIRYQIDINNLTQRDVESLPLNGIGLVEMTFDEPLALDIYQQNPVTGGLIFIDRLSNVTVGAGMVRELDERGATPPVEYSAFELELNALVRRHFPHWDARDLLGDKHGAA”, “not soluble”.
To “MADRDATLWASHEKMLSQPLKDSDAEVYSIIKKESNRQRVGLELIASENFASRAVLEALGSSLNNKYSEGYPGQRYYGGTEFIDELEMLCQKRALQAYHLDPQCWGVNVQPYSGSPANFAVYTALVEPHGRIMGLDLPDGGHLTHGFMTDKKKISATSIFFESMPYKVYPETGYINYDQLEENASLFHPKLIIAGTSCYSRNLDYARLRKIADDNGAYLMADMAHISGLVAAGVVPSPFEHCHVVTTTTHKTLRGCRAGMIFYRKGVRSVDPKTGKETYYELESLINSAVFPGLQGGPHNHAIAGVAVALKQAMTTEFKIYQLQVLANCRALSDALTELGYKIVTGGSDNHLILMDLRSKGTDGGRAEKVLEACSIACNKNTCPGDKSALRPSGLRLGTPALTSRGLLEEDFQKVAHFIHRGIELTLQIQSHMATKATLKEFKEKLAGDEKIQSAVATLREEVENFASNFSLPGLPDF” belongs “soluble”.
With “MAGDPMVTQNKKILIITGSFGNGHLQVTQSVVNQFKEMNLDNLTVIEHDLFLEAHPILTSICKKWYINSFKYFRNMYKAFYYSQPDQLDKCFYKYYGLNKLMNLLLKEKPDLILLTFPTPVMSVLTEQFDMNIPIATVMTDYRMQKNWITPFSQRYYLATEELKDEFASIGIPKDKLKVTGIPISDKFETDIDKTAWLSQNHLDPDKPTILMSAGAFGVSKGFGQMIQEILNRSPHAQVVMICGKNKDLKRSLTSQFKDFNNVLILGYTKHMNEWMASSQLMITKPGGITISEALTRQIPMIFLDPAPGQELENAVYFEEKGYGRIANTPEAAIEQVAALTNAPTKLASMSESMDASRIPYSTYKLCKDLLNLLNHSSHYEEVYGKVPLYAKLFVKLEHHHHHH”, the “soluble on expression in E. coli” value is recorded as “not soluble”.
In the case of “FSDISSLQRFVKFSQSDWLVEMLAQERFTSHFQPIVSMKNTSEIYGYEALLRGLDEQGNLIPPQPIVELATEAGLLPQLDRIARLSTIAQFSSHQVSGQIFINFAPTAVYDPASCLKSTVEAIDQAGISHERVVFEVVESDSPQDLDHLKAVLKYYRDAGFSIALDDLGSGYSSLNLLHQLRPDFIKLDMELIRDVHQDLYKASITEKLLEIAQKLNIRTVAEGIECIEELNWVQERGATFAQGYLIAKP” it was “not soluble”.
Turning to “TAPTLAEEVKQQSDGSVIIEGSANLRDLNKLFNWHLPINEVRTFNGLILEHLEKIPIEGTQFRLNQLNITVLEVADNMVKKVKVELIE”, the “soluble on expression in E. coli” value is “soluble”.
In the case of “QPSLLDRLVDDEPWRRSEAPEAALLTHAGLRAAVLRDLRWLLNTVNLASSQDLAPYRHVPASSVNFGVRAMAGRRMSEIDWVDVETSIRDAIAAFEPRILESSVEVRCVSDTRTLEHHNVLSLEIRGMLWCVPHPREFLFRTDIDLE” it was “not soluble”; in that of “MKIVAVTACPTGIAHTYMAADALMKAAPKHNVQIKVETQGAMGIENQLTPHDIAQADRVLIVSDIEIEQPGRFEGTRKIQIPIEEVLLNVDKVFLVHCRD”, “soluble”.
In the case of “MIAAQLLAYYFTELKDDQVKKIDKYLYAMRLSDETLIDIMTRFRKEMKNGLSRDFNPTATVKMLPTFVRSIPDGSEKGDFIALDLGGSSFRILRVQVNHEKNQNVHMESEVYDTPENIVHGSGSQLFDHVAECLGDFMEKRKIKDKKLPVGFTFSFPCQQSKIDEAILITWTKRFKASGVEGADVVKLLNKAIKKRGDYDANIVAVVNDTVGTMMTCGYDDQHCEVGLIIGTGTNACYMEELRHIDLVEGDEGRMCINTEWGAFGDDGSLEDIRTEFDRAIDAYSLNPGKQLFEKMVSGMYLGELVRLILVKMAKEGLLFEGRITPELLTRGKFNTSDVSAIEKNKEGLHNAKEILTRLGVEPSDDDCVSVQHVCTIVSFRSANLVAATLGAILNRLRDNKGTPRLRTTVGVDGSLYKTHPQYSRRFHKTLRRLVPDSDVRFLLSESGSGKGAAMVTAVAYRLAEQHRQIEETLAHFHLTKDMLLEVKKRMRAEMELGLRKQTHNNAVVKMLPSFVRRTPDGTENGDFLALDLGGTNFRVLLVKIRSGKKRTVEMHNKIYAIPIEIMQGTGEELFDHIVSCISDFLDYMGIKGPRMPLGFTFSFPCQQTSLDAGILITWTKGFKATDCVGHDVVTLLRDAIKRREEFDLDVVAVVNDTVGTMMTCAYEEPTCEVGLIVGTGSNACYMEEMKNVEMVEGDQGQMCINMEWGAFGDNGCLDDIRTHYDRLVDEYSLNAGKQRYEKMISGMYLGEIVRNILIDFTKKGFLFRGQISETLKTRGIFETKFLSQIESDRLALLQVRAILQQLGLNSTCDDSILVKTVCGVVSRRAAQLCGAGMAAVVDKIRENRGLDRLNVTVGVDGTLYKLHPHFSRIMHQTVKELSPKCNVSFLLSEDGSGKGAALITAVGVRLRTEASS” it was “soluble”; in that of “MSLNADKFRKIDAHSHIQVLGYPFNVSITPEEFLSLMEAYNIEIAIISDVNNDNIAKIVKEYPDKLVGIYWPNPRDEKSINETEKFLEKYEFRGIKLHPLLNMFSPSDPRVEKIMKIAEEFNVHVQIHSGHPPTSLPWQIEELARKFPEVKIVMVHMGHGNAYYIQGAIEIAGRNENIYLETSGMPMPSKIAEAYEVAPRRVVFGIDLPCHHPVVEIAKVLISGLNEKGMKRVFYENAKVLLEGHHHHHH”, “not soluble”; in that of “MSLLSEENEFLFDLNEIPEKTVYSDDGDEFLFDLNKIPPREETVNSSDEDFADHLHRRNQATKRKKKLRKRPKVFRHIEKVISFSFYLVLRASSFLFLDLNWGLRMDTDPYQELRMDTDHMTYEQLLQLCNNMGYENSGVKASNIDRCLRNTKPSEFQSLADKICCICQDGFQKRAGVGKLNCGHNFHVNCVKPWILTKK”, “soluble”.

The record behind these values is the DeepSol protein solubility set.
